pIC50, pKd: −log10 of the molar value.
What was measured:
HLA-B*45:06 = experiment: IEDB peptide-MHC binding, purified MHC/competitive/fluorescence; filed as Kd, often an IC50 or EC50 that approximates it; ≥ and ≤ were set here for values at or beyond the usual limits of such assays
HLA-B*15:42 = experiment: as above
HLA-B*83:01 = experiment: as above
HLA-B*08:01 = experiment: as above
HLA-A*11:01 [1] = experiment: IEDB peptide-MHC binding, purified MHC/competitive/fluorescence; ≥ and ≤ were set here for values at or beyond the usual limits of such assays
HLA-A*03:01 [2] = experiment: as above
HLA-B*39:01 = experiment: IEDB peptide-MHC binding, purified MHC/competitive/fluorescence; filed as Kd, often an IC50 or EC50 that approximates it; ≥ and ≤ were set here for values at or beyond the usual limits of such assays
HLA-A*01:01 [3] = experiment: as above
HLA-A*29:02 [4] = experiment: as above; conditions: source organism: Streptococcus pneumoniae D39
HLA-A*24:03 = experiment: IEDB peptide-MHC binding, purified MHC/direct/fluorescence; filed as Kd, often an IC50 or EC50 that approximates it; ≥ and ≤ were set here for values at or beyond the usual limits of such assays
HLA-A*02:16 = experiment: as above
HLA-A*02:11 = experiment: as above
HLA-A*02:19 = experiment: as above
HLA-A*29:02 [5] = experiment: as above
HLA-A*02:12 = experiment: as above
HLA-A*02:03 = experiment: as above
HLA-A*03:01 [6] = experiment: as above
HLA-B*51:01 [7] = experiment: IEDB peptide-MHC binding, purified MHC/competitive/fluorescence; filed as Kd, often an IC50 or EC50 that approximates it; ≥ and ≤ were set here for values at or beyond the usual limits of such assays
HLA-A*26:01 = experiment: as above
HLA-B*27:03 = experiment: as above
HLA-B*15:01 = experiment: as above
HLA-B*15:17 = experiment: as above
HLA-A*69:01 = experiment: as above
HLA-B*57:01 = experiment: as above
HLA-B*46:01 = experiment: as above
HLA-B*51:01 [8] = experiment: IEDB peptide-MHC binding, purified MHC/competitive/radioactivity; filed as Kd, often an IC50 or EC50 that approximates it; ≥ and ≤ were set here for values at or beyond the usual limits of such assays
HLA-B*35:01 [9] = experiment: as above
HLA-B*54:01 = experiment: as above
HLA-B*07:02 [10] = experiment: as above
HLA-B*53:01 = experiment: as above
HLA-A*02:01 [11] = experiment: IEDB peptide-MHC binding, purified MHC/competitive/fluorescence; ≥ and ≤ were set here for values at or beyond the usual limits of such assays
HLA-B*35:01 [12] = experiment: IEDB peptide-MHC binding, purified MHC/competitive/fluorescence; filed as Kd, often an IC50 or EC50 that approximates it; ≥ and ≤ were set here for values at or beyond the usual limits of such assays; conditions: source organism: Yersinia pestis Antiqua
HLA-A*68:02 = experiment: IEDB peptide-MHC binding, purified MHC/direct/fluorescence; filed as Kd, often an IC50 or EC50 that approximates it; ≥ and ≤ were set here for values at or beyond the usual limits of such assays; conditions: source organism: Orthohantavirus sangassouense
HLA-B*07:02 [13] = experiment: as above
HLA-B*18:01 = experiment: IEDB peptide-MHC binding, purified MHC/competitive/fluorescence; filed as Kd, often an IC50 or EC50 that approximates it; ≥ and ≤ were set here for values at or beyond the usual limits of such assays; conditions: source organism: Kurkino virus
HLA-A*02:01 [14] = experiment: as above
HLA-A*01:01 [15] = experiment: IEDB peptide-MHC binding, purified MHC/direct/fluorescence; filed as Kd, often an IC50 or EC50 that approximates it; ≥ and ≤ were set here for values at or beyond the usual limits of such assays; conditions: source organism: Mus musculus
HLA-A*02:01 [16] = experiment: as above; conditions: source organism: SARS-CoV1
HLA-A*11:01 [17] = experiment: as above; conditions: source organism: SARS-CoV1
HLA-A*24:02 = experiment: IEDB peptide-MHC binding, purified MHC/competitive/fluorescence; ≥ and ≤ were set here for values at or beyond the usual limits of such assays
[18] = source organism: Human herpesvirus 4 strain B95-8
[19] = source organism: Vaccinia virus WR
[20] = source organism: Escherichia coli 536
[21] = source organism: Orthohantavirus andesense
[22] = source organism: Sudan ebolavirus
[23] = source organism: Yersinia pestis Antiqua
[24] = source organism: Triticum aestivum
[25] = source organism: Orthohantavirus sangassouense
[26] = source organism: Mammarenavirus machupoense
[27] = source organism: SARS coronavirus Tor2
[28] = source organism: Zaire ebolavirus
[29] = source organism: Vaccinia virus Copenhagen

## DEVEFLGHY
HLA-B*45:06; [18]
  pKd: ≤ 5.30
HLA-B*15:42; [18]
  pKd: ≤ 5.30
HLA-B*83:01; [18]
  pKd: ≤ 5.30

## ENALRGVAV
HLA-B*08:01; source organism: Escherichia coli
  pKd: 6.42

## ETLGYCMIR
HLA-A*11:01 [1]; [19]
  pIC50: 4.60
HLA-A*03:01 [2]; [19]
  pIC50: ≤ 3.61

## FGGVPREVL
HLA-B*08:01; [20]
  pKd: ≤ 4.70
HLA-B*39:01; [20]
  pKd: ≤ 4.70

## FLQMENLMY
HLA-A*01:01 [3]; source organism: Bacillus anthracis str. A0488
  pKd: 8.68

## GVNFNLYYY
HLA-A*29:02 [4]
  pKd: ≥ 10.00
HLA-A*01:01 [3]; source organism: Streptococcus pneumoniae D39
  pKd: 7.68

## IQNALEKAL
HLA-A*24:03; [21]
  pKd: ≤ 4.70
HLA-A*02:16; [21]
  pKd: ≤ 4.70
HLA-A*02:11; [21]
  pKd: ≤ 4.70
HLA-A*02:19; [21]
  pKd: ≤ 4.70
HLA-A*29:02 [5]; [21]
  pKd: ≤ 4.70
HLA-A*02:12; [21]
  pKd: ≤ 4.70
HLA-A*02:03; [21]
  pKd: ≤ 4.70
HLA-A*03:01 [6]; [21]
  pKd: ≤ 4.70
HLA-B*51:01 [7]; [21]
  pKd: ≤ 4.70
HLA-A*26:01; [21]
  pKd: ≤ 4.70
HLA-B*27:03; [21]
  pKd: ≤ 4.70
HLA-B*15:01; [21]
  pKd: 6.70
HLA-B*15:17; [21]
  pKd: ≤ 4.70
HLA-A*69:01; [21]
  pKd: ≤ 4.70
HLA-B*57:01; [21]
  pKd: ≤ 4.70
HLA-B*46:01; [21]
  pKd: ≤ 4.70

## LPRVVGGKTV
HLA-B*51:01 [8]; [19]
  pKd: 7.49
HLA-B*35:01 [9]; [19]
  pKd: ≤ 4.54
HLA-B*54:01; [19]
  pKd: 7.41
HLA-B*07:02 [10]; [19]
  pKd: 9.51
HLA-B*53:01; [19]
  pKd: 4.91

## LRRWGGTCR
HLA-A*02:01 [11]; [22]
  pIC50: ≤ 3.19
HLA-A*03:01 [2]; [22]
  pIC50: ≤ 3.70

## MPARLWLCL
HLA-B*51:01 [7]; [23]
  pKd: ≤ 4.70
HLA-B*35:01 [12]
  pKd: 9.10
HLA-B*08:01; [23]
  pKd: 6.42
HLA-B*39:01; [23]
  pKd: 6.97

## QAFYTRVLK
HLA-A*11:01 [1]; [19]
  pIC50: 6.51
HLA-A*03:01 [2]; [19]
  pIC50: 5.83

## QPQYSQPQQPI
HLA-B*51:01 [8]; [24]
  pKd: 4.94
HLA-B*35:01 [9]; [24]
  pKd: ≤ 4.20
HLA-B*54:01; [24]
  pKd: ≤ 4.20
HLA-B*07:02 [10]; [24]
  pKd: ≤ 4.19
HLA-B*53:01; [24]
  pKd: ≤ 4.20

## RLKTTENSF
HLA-B*08:01; source organism: Influenza A virus (A/Northern Territory/60/1968(H3N2))
  pKd: ≤ 4.70

## RPTPKKMNIV
HLA-B*51:01 [8]; [19]
  pKd: ≤ 4.16
HLA-B*35:01 [9]; [19]
  pKd: ≤ 4.31
HLA-B*54:01; [19]
  pKd: 5.23
HLA-B*07:02 [10]; [19]
  pKd: 7.28
HLA-B*53:01; [19]
  pKd: ≤ 4.16

## SPGDNSAKF
HLA-A*24:03; [25]
  pKd: ≤ 4.70
HLA-A*02:16; [25]
  pKd: ≤ 4.70
HLA-A*02:11; [25]
  pKd: ≤ 4.70
HLA-A*02:19; [25]
  pKd: ≤ 4.70
HLA-A*29:02 [5]; [25]
  pKd: ≤ 4.70
HLA-A*02:12; [25]
  pKd: ≤ 4.70
HLA-A*02:03; [25]
  pKd: ≤ 4.70
HLA-A*68:02
  pKd: ≤ 4.70
HLA-B*07:02 [13]; source organism: Tanganya virus
  pKd: 5.71
HLA-A*03:01 [6]; [25]
  pKd: ≤ 4.70
HLA-B*51:01 [7]; source organism: Kurkino virus
  pKd: ≤ 4.70
HLA-B*18:01
  pKd: ≤ 4.70
HLA-A*26:01; source organism: Kurkino virus
  pKd: ≤ 4.70
HLA-B*27:03; source organism: Kurkino virus
  pKd: ≤ 4.70
HLA-B*15:01; source organism: Kurkino virus
  pKd: ≤ 4.70
HLA-B*15:17; source organism: Kurkino virus
  pKd: ≤ 4.70
HLA-A*02:01 [14]; source organism: Kurkino virus
  pKd: ≤ 4.70
HLA-A*69:01; source organism: Kurkino virus
  pKd: ≤ 4.70
HLA-B*57:01; source organism: Kurkino virus
  pKd: ≤ 4.70
HLA-B*39:01; source organism: Kurkino virus
  pKd: ≤ 4.70
HLA-B*46:01; source organism: Kurkino virus
  pKd: ≤ 4.70

## SVDSDHLGY
HLA-A*01:01 [15]
  pKd: 9.15
HLA-B*45:06; source organism: Homo sapiens
  pKd: ≤ 5.30
HLA-B*51:01 [7]; source organism: Homo sapiens
  pKd: ≤ 4.70
HLA-B*27:03; source organism: Homo sapiens
  pKd: ≤ 4.70
HLA-B*15:42; source organism: Homo sapiens
  pKd: ≤ 5.30
HLA-B*83:01; source organism: Homo sapiens
  pKd: ≤ 5.30
HLA-A*02:01 [14]; source organism: Homo sapiens
  pKd: ≤ 4.70
HLA-A*69:01; source organism: Homo sapiens
  pKd: ≤ 4.70
HLA-B*57:01; source organism: Homo sapiens
  pKd: ≤ 4.70
HLA-B*39:01; source organism: Homo sapiens
  pKd: ≤ 4.70
HLA-B*46:01; source organism: Homo sapiens
  pKd: ≤ 4.70

## TPNQPSAEF
HLA-B*51:01 [8]; [26]
  pKd: 4.89
HLA-B*35:01 [9]; [26]
  pKd: 7.39
HLA-B*54:01; [26]
  pKd: 4.73
HLA-B*07:02 [10]; [26]
  pKd: 7.12
HLA-B*53:01; [26]
  pKd: 6.25

## TPRDLGACI
HLA-A*02:01 [16]
  pKd: ≤ 4.44
HLA-A*11:01 [17]
  pKd: 5.01
HLA-B*07:02 [13]; source organism: SARS-CoV1
  pKd: 6.73
HLA-B*51:01 [8]; [27]
  pKd: 5.41
HLA-B*35:01 [9]; [27]
  pKd: 4.89
HLA-B*54:01; [27]
  pKd: 5.41
HLA-B*53:01; [27]
  pKd: ≤ 4.38

## TSPQSLTTK
HLA-A*11:01 [1]; [28]
  pIC50: 5.75
HLA-A*03:01 [2]; [28]
  pIC50: 4.65

## VLFGLGFAI
HLA-A*03:01 [2]; source organism: Mus musculus
  pIC50: 4.90

## VSSGKNIKR
HLA-A*02:01 [11]; [28]
  pIC50: ≤ 3.85
HLA-A*11:01 [1]; [28]
  pIC50: 5.37
HLA-A*03:01 [2]; [28]
  pIC50: ≤ 4.09
HLA-A*24:02; [28]
  pIC50: ≤ 3.79

## VYGNIKHKE
HLA-A*11:01 [1]; [29]
  pIC50: 4.16
HLA-A*03:01 [2]; [29]
  pIC50: ≤ 3.80
HLA-A*24:02; [29]
  pIC50: 4.46

— the Immune Epitope Database (IEDB)
